Experimental findings from the nanobody polyreactivity screen of Harvey et al. (2022) are described below.

The data set can be described thus: yeast display, Sf9 membrane polyspecificity reagent, FACS + sequencing; frameworks hold sequencing errors. The procedure, abridged:
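A synthetic nanobody library was expressed on Saccharomyces cerevisiae BJ5465 by galactose induction for 36–48 hours. The library was stained for 1 hour at 4 °C with 10% biotinylated, detergent-solubilized Sf9 membrane reagent and enriched with streptavidin microbeads before FACS. Low and high (top ~1%) gates were set on anti-HA fluorescence for expression and streptavidin fluorescence for reagent binding, and each polyreactivity label reflects the gate of origin.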
Turning to “QVQLVESGGGVVQAGGSLRLSCAASGRIFRYTMGWYRQAPGKETELVADITRHGGSTYYADSVKGRFTISRDNAKNTVYLQMNSLKPEDTAVYYCAADHLSYRRRYEYWGQGTQVTVSS”, the “polyreactivity (PSR sort gate)” value is given as “low polyreactivity”. As for “QVQLVESGGGVVQAGGSLRLSCAASGRIFVSYAMGWYRQAPGKERELVASISGRGGSTYYADSVKGRFTISRDNAKNTVELQMNSLKPEDTAVYYCNKVARTRRITTYDYWGQGTQVTVSS”, the entry is “high polyreactivity”.

Turning to “QVQLVESGGGVVQAGGSLRLSCAASGRIFVVYVMGWYRQAPGKEREFVAAITWGGGNTYYADSVKGRFTISRDNAKNTVYLQMNSLKPEDTAVYYCAAADGDDTTFRYDYWGQGTQVTVSS”, the “polyreactivity (PSR sort gate)” value was “low polyreactivity”. In the case of “QVQLVESGGGVVQAGGSLRLSCAASGRISRGNAMGWYRPAPGKEREFVAAISWSGDGTYYADSVKGRFTISRDNAKYTVYLQMNSLNPEDTAVYYCNTAVKVERDYWGQGTQVTVSS” it was “low polyreactivity”; in that of “QVQLVESGGGVVQAGGSLRLSCAASGRNFVYNAMGLYRQAPGKERELVAAIYSGGRTYYADSVKGRFTISRDNAKNTVYFKMYSLKPEDTAVYYCAARWYVLPTQTRPYYGYYYWGQGTQVTVSS”, “high polyreactivity”. Regarding “QVQLVESGGGVVQAGGSLRLSCAASGRNFYSYAMGLYTQAPGKERELVAAISKRGTSTYYADSVKGRFTISRDNAKNTVYLQMNSLKPEDTAVYYCAAVHWRYQYSLRYDYWGQGTQVTVSS”, the “polyreactivity (PSR sort gate)” value is recorded as “high polyreactivity”. In the case of “QVQLVESGGGVVQAGGSLRLSCAASGRTFKKYAMGWYRQAPGKEREFVARITYSAGSTYYADSVKGRFTISRDNAKNSVYLQMNSLKPEDTAVYYCASRFASSGPRWYSRHGEYDYWGQGTQVTVSS” it was “low polyreactivity”. With “QVQLVESGGGVVQAGGSLRLSCAASGRTFPLYAMGWYRQAPGKERELVAAIRTGGSTNYADSVKGRFTISRDNAKNTVYLQMNSLKPEDTAVYYCAAVQRTDRSAHYSWGQGTQVTVSS”, the “polyreactivity (PSR sort gate)” value was “low polyreactivity”.

For “QVQLVESGGGVVQAGGSLRLSCAASGRTFRPYAMGWYRQAPGKERELVAAIDSSGTSTYYADSVKGRFTISRDNAKNSVYLQMNSLKPEDTAVYYCAKAWPDHWYSRYDYWGQGTQVTVSS”, the “polyreactivity (PSR sort gate)” value is “low polyreactivity”. As for “QVQLVESGGGVVQAGGSLRLSCAASGSIFNGYAMGWYRQAPGNEWELVAAISGNGGRTYYADSVKGRFTFSRDYAKNTVYLQMNSLKPEETADYYCNKVSGYYVDYWGQGSQVTVSS”, the entry is “high polyreactivity”; as for “QVQLVESGGGVVQAGGSLRLSCAASGSIFNRYAMGWYRQAPGKERELVAAISTHTGTTYYADSVKGRFTISRDNAKNTVYLQMNSLKPEDTAVYYCNAATYGGRYYYWGQGTQVTVSS”, “high polyreactivity”. In the case of “QVQLVESGGGVVQAGGSLRLSCAASGSIFQSYAMGWYRQAPGKERELVAAISYSGDGPFYADSVKGRFTISRDNAKKTVYLQMNSLKPEDTAVYYCAASSTGYGGSTYYYWGQGTQVTVSS” it was “low polyreactivity”; in that of “QVQLVESGGGVVQAGGSLRLSCAASGSIIWWYAMGWYRQAPGKERELVARMNKRSGSTYYADSVKGRFTISRDNAKNTVYLLRNSLKPEDTAVYYCAATWRSSGIAFFYWGQGTQVTLSS”, “high polyreactivity”.

As for “QVQLVESGGGVVQAGGSLRLSCAASGSTCSWYVMGWYRQAPGKERELVASISRSGGSTYYADSVKGRFTISRDNAKNTVYLQMNSLKPEDTAVYYCAARQAGYSGRKLYYWAQGTQVTVSS”, the “polyreactivity (PSR sort gate)” value is recorded as “low polyreactivity”.

As to “QVQLVESGGGVVQAGGSLRLSCAASGSTFDVYAMGWYRQAPGKERELVAAITSGGTTNYADSVKGRFTNSRDNAKNTVYLQMNSLKPEDTAVYYCAADSPWGGGYFVLYNYWGQGTQVTVSS”, the “polyreactivity (PSR sort gate)” value is listed as “low polyreactivity”. On to “QVQLVESGGGVVQAGGSLRLSCAASGSTFGINCYGMYRQAPGKERELVAGISVSGGSTYYADSVKGRFTISRDNAKNTVYLKMNSLKPEDSAVYYCNRDTTVFLIYSYGYWGQGTQVTVSS”, for which the “polyreactivity (PSR sort gate)” value is on record as “low polyreactivity”.

“QVQLVESGGGVVQAGGSLRLSCAASGSTISPYAMGWYRPAPGKERELVAAISSGGSTSYADSVKGRFTISRDNAKNTVYLQMNSLKPEDTAVYYCHASSPGEVPVYDYDYWGQGTQVTVSS”: the “polyreactivity (PSR sort gate)” value is “low polyreactivity”. In the case of “QVQLVESGGGVVQAGGSLRLSCAASGSTLAGYAMGWYRPAPGKERELVAAIDWTGGSTTYADSVKGRFTISRDYAKNTVYLQMNCLKPDDTAVYSCNVVLGVNGDYWGQGCQVTVSS” it was “low polyreactivity”; in that of “QVQLVESGGGVVQAGGSLRLSCAASVSIFDDYAMGWYRQAPGKERELVASISRTGRTYYADSVKGRFTISRDNAKNTVYLQMNSLKPEDTAVYYCAATRYAPYRRYYYWGQGTQVTVSS”, “high polyreactivity”; in that of “QVQLVESGGGVVQAGGSLRLSCAGSGRTFGPYAMGWYRQAPGKERELVAAIRYIDDSTFYADSVKGRFTISRDKAKNTVYLQMNSLKPEDTAVYYCAAQRRVVGRHGLSLIRYDYWGQGTQVTVTS”, “low polyreactivity”. In the case of “QVQLVESGGGVVQAGGSLRLTCAASGFTFSYNAMGWYRQAPGKERQLVAAISYSGGSTYYADSVKGRFTISRDTAKNTVYLQMNSLIPEHTAVYYCAAYSYYNYPNRGVYRGYYYWGQGTQGTVSS” it was “high polyreactivity”; in that of “QVQLVESGGGVVQARGSLRLSCAASGRIFYGYAMGWYRQAPGKERELVAAITRSSSTYYADSVKGRFTISRDNAKNTVYLQMNSLKPEDTAVYYCAAASRRSGASSWYDYWGQGTQVTVSS”, “high polyreactivity”; in that of “QVQLVESGGGVVQARGSLRLSCAASGSPFWYHDMGWYRQAPGKERELVASISWSGGDTYYADSVKGRFTISRDNAKNTVYLQMNSLKTVDTAVYYCAAATLVSFWLDYWGEGTQVTVSS”, “low polyreactivity”. In the case of “QVQLVESGGPLVQAGGSLRLSCAASGRTIRYYTMGWYRQAPGKEREFVAAITSTGGTYYADSVKGRFTSSRDNAKNTVYLQRTSLKQEDTGVYYCAATFIQFVVNVQLYDYDYWGQGTQVTVSS”, the “polyreactivity (PSR sort gate)” value is listed as “low polyreactivity”. In the case of “QVQLVESGGRIDQAGGRLRLSCAASGSIFDWYAMGWYRQAPGKERELVAAIDSSGSSTYYADSVKGRFTISRDNAKNTVYLQMNSLIPEDTAVYYCAADSDWIRYWFGSLYGSDYWGQGTQVSVSS” it was “low polyreactivity”; in that of “QVQLVESGGRIVQAGGSLRLSCAASGRTFPINAMGWYRQAPGKERELVASIRWTDGTTYYADSVKGRFTISRDNAKNTVYLQMNSLKPEDTAVYYCAADAEGSASKYDYWGQGTQVTVSS”, “low polyreactivity”; in that of “QVQLVESGGRLVQAGCSLRLSCAASGFIFRLYAKGWYRQAPGKERELVAAISDDASTNYADSVKGRFTISRDNAKNTVYLQMNSLKPEDTAVYYCAAAVKRGYAQSFISDGYGYWGEGTQVTVSS”, “low polyreactivity”. As for “QVQLVESGGRLVQAGGRLRLSCAASGFIVYFNAMGWYIQAPGKERELVAAIRISGGSTYYADSVKGRFTISRDNAKNTVYLQMNSLKPEDTAVYYCATAPENYVSVGYDYWGQGTQVTVSS”, the entry is “low polyreactivity”; as for “QVQLVESGGRLVQAGGRLRLSCAASGRTFPIYVMGWYRQAQGKERELVATIDSDGTTNYADSVKGRFTISRDNAKNTVSLQMNSLKPEDTAVYYCAADSGWWEYCEDYWGQGTQVTVSS”, “low polyreactivity”; as for “QVQLVESGGRLVQAGGRLRLSGAASGSNFTDNAMGWYRQAPGKERELVAGISERGSSTYYADSVKGRFTISRDNAKNTVYLQMNSLKRVDTAVYYCSAEDVGRYWSSTHNWARGDYWGQGTQVTVSS”, “low polyreactivity”.
